From US6548266B1, “Assay for detecting the enzymatic activity of a phosphorylation enzyme using enhanced signal generation” (Kinetek Pharmaceuticals, Inc., priority 1999, dated 2003)
Each block holds one substance with its values, some of them ahead of it.

What was measured:
S6K = molecular target: T1, S6K (Homo sapiens, UniProt P23443); assay: Phosphorylation of peptide substrate in solution, spotted on phosphocellulose plate, scintillation counting; format: biochemical; conditions: for Ratio: after/before conjugation; for Radioactivity (cpm) Before Conjugation: free peptide before conjugation to polymer; for Radioactivity (cpm) Before Conjugation / Radioactivity (cpm) After conjugation: 15 min room temperature; for Radioactivity (cpm) After conjugation: peptide after conjugation to polymer
T1 construct: made in house
Experimental: (§1) The phosphorylation assay mixture typically comprised:
(§2) The phosphorylation of the polymer-conjugated substrate was carried out in a solution containing 5 μL (˜5 μg peptide) of the conjugated substrate, 10 μL of the indicated enzyme, 10 μL of ADB, and 5 μL of γ-^32P-ATP. After incubation at room temperature for 15 minutes, the reaction was stopped by spotting 10 μL of the sample solution on a phosphocellulose plate and washing with water, 1% phosphoric acid solution, water and ethanol. The radioactivity in each well was measured using a Trilux Microbeta 1450 liquid scintillation counter (Wallac).

ERK1 [1] = molecular target: T2, ERK1 (Homo sapiens, UniProt P27361); assay: Two-plate assay; format: biochemical
Experimental: (§3) The one-plate assay was compared with the two-plate assay under the normal conditions employed by the high throughput screening robotic system: a mixture of 5 μL substrate (5 μg), 10 µL enzyme, 10 μL ADB and 5 μL γ-^32P ATP was incubated at room temperature for 20 minutes. In the one-plate assay, a non-covalent, medium binding plate was used.

ERK1 [2] = molecular target: T2, ERK1; assay: Phosphorylation of SEK1-CT immobilized on covalent, amine-binding strips; format: biochemical; conditions: conjugation simultaneous with phosphorylation, 15 min
Experimental: Immobilization of SEK1-CT on covalent, amine-binding strips was also accomplished in a stepwise procedure: the polymer was immobilized on a covalent, amine-binding plate first (1 hour), then treated with SMCC (1 hour). Conjugation of SEK1-CT to the immobilized polylysine was achieved simultaneously with the phosphorylation by ERK1. The polymers used were polylysine of MW ˜35,000 and poly(lys, ala) 1:1 copolymer of MW ˜35,000. The assay mixture comprising 5 μL of SEK1-CT, 5 μL of ADB, 10 μL of ERK1 and 10 μL of γ-^32P-ATP was incubated at room temperature for 15 minutes. An aliquot (10 μL) was then spotted on a phosphocellulose plate to stop the reaction. The radioactivity on the plate was determined using a Trilux Microbeta liquid scintillation counter. The radioactivity remaining on the surface of the wells after the plate was washed with water and 1% phosphoric acid was determined using a Beckmann liquid scintillation counter. […] Also, the immobilization of polymer-conjugated SEK1-CT on the surfaces enhanced its phosphorylation. The radioactivity observed for the unconjugated SEK1-CT may result from non-specific binding of the amine groups on SEK1-CT to the plate. This non-specific binding could be eliminated by using polylysine as the blocking agent.

ERK1 [3] = molecular target: T2, ERK1; assay: One-plate assay (non-covalent, medium binding plate); format: biochemical
Experimental: as §3

ERK1 [4] = molecular target: T2, ERK1; assay: Phosphorylation of peptide substrate in solution, spotted on phosphocellulose plate, scintillation counting; format: biochemical; conditions: for Enhancing effect of polymeric carrier on the substrate activity: SEK1-CT conjugated to the polymer, result in words; for Radioactivity (cpm), polymer effect on the phosphorylation of SEK1-CT by ERK1: SEK1-CT conjugated to the polymer named in the row
Experimental: as §1, §2

ERK1 [5] = molecular target: T2, ERK1; assay: Phosphorylation of substrate immobilized on covalent, amine-binding plates; format: biochemical; conditions: amine-binding plate
Experimental: (§4) The polylysine-conjugated peptide substrate was diluted with a PBS buffer (pH 7.4) to a concentration of 0.1 mg/mL. Then 100 μL of the diluted solution was placed into each well of the covalent, amine-binding plate. The plate was incubated at room temperature for one hour and then washed with the PBS buffer three times and distilled water once. The substrate-immobilized plate was then phosphorylated as using standard assay conditions: 10 μL of the indicated enzyme, 15 μL of ADB and 5 μL of γ-^32P-ATP at room temperature for 15 minutes. After phosphorylation, the plate was rinsed sequentially with water, 1% phosphoric acid solution, water, and ethanol. The radioactivity in each well was determined using a Trilux Microbeta liquid scintillation counter. Two polylysine-conjugated substrates were immobilized on the covalent, amine-binding plates and phosphorylation of these immobilized polylysine-conjugated substrates was carried out. Both systems yielded reasonably high signals and the background signals on these plates were less than 500 cpm.
(§5) Effect of pH. In the case of immobilization to covalent, amine-binding plates, the pH effect was investigated. The immobilization of a conjugated-substrate to an covalent, amine-binding plate was achieved by incubating 100 μL of PBS buffer solution containing 10 μg of the conjugated-substrate at room temperature for an hour. […]

PKB [6] = molecular target: T3, PKB (Homo sapiens, UniProt P31749); assay: Two-plate assay; format: biochemical
T3 construct: made in house; host or cells: insect cells
Experimental: as §3

PKB [7] = molecular target: T3, PKB; assay: One-plate assay (non-covalent, medium binding plate); format: biochemical
Experimental: as §3

PKB [8] = molecular target: T3, PKB; assay: Phosphorylation of peptide substrate in solution, spotted on phosphocellulose plate, scintillation counting; format: biochemical
Experimental: as §1, §2

PKA = molecular target: T4, PKA (Bos taurus, UniProt P00517); assay: as above; format: biochemical, bovine
T4 construct: PKA was isloated from bovine heart; from tissue; host or cells: bovine heart
Experimental: CDK1, PAK and PIM were grown in bacterial culture at Kinetek Pharmaceuticals. PIM was isolated as described by Palaty et al. (1997) J Biol Chem 272:10514-10521. PKA was isloated from bovine heart. PKB was expressed in insect cells. S6K was isolated according to Grove et al. (1991) Mol Cell Bio 11:5541-5550. Kinase stock solutions were prepared at concentrations of 1-10 mg/mL in 150 mM Tris-Cl (pH 7.5) containing 5 mg/mL BSA and 100 mM MgCl2.
as §1, §2

CDK1 = molecular target: T5, CDK1 (Homo sapiens, UniProt P06493); assay: as above; format: biochemical
T5 construct: made in house; host or cells: bacterial culture
Experimental: as §1, §2

PAK = assay: as above; format: biochemical
Experimental: as §1, §2

PIM [9] = molecular target: T6, PIM (Xenopus laevis, UniProt Q91822); assay: as above; format: biochemical
T6 construct: made in house; host or cells: bacterial culture
Experimental: as §1, §2

PIM [10] = molecular target: T6, PIM; assay: Phosphorylation of substrate immobilized on covalent, amine-binding plates; format: biochemical; conditions: amine-binding plate
Experimental: as §4, §5

[11] = conjugated substrate, 20 minutes
[12] = free peptide before conjugation to polymer
[13] = peptide after conjugation to polymer

T5 sequence (P06493 whole entry, species assumed): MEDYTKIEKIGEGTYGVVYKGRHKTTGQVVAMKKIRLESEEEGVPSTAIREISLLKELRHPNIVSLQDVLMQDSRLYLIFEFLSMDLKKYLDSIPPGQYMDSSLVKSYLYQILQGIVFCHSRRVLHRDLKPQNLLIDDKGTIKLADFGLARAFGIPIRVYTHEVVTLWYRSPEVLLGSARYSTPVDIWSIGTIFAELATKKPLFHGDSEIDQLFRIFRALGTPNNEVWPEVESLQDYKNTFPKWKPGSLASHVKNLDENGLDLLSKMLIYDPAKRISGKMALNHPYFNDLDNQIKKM
T1 sequence (P23443 whole entry): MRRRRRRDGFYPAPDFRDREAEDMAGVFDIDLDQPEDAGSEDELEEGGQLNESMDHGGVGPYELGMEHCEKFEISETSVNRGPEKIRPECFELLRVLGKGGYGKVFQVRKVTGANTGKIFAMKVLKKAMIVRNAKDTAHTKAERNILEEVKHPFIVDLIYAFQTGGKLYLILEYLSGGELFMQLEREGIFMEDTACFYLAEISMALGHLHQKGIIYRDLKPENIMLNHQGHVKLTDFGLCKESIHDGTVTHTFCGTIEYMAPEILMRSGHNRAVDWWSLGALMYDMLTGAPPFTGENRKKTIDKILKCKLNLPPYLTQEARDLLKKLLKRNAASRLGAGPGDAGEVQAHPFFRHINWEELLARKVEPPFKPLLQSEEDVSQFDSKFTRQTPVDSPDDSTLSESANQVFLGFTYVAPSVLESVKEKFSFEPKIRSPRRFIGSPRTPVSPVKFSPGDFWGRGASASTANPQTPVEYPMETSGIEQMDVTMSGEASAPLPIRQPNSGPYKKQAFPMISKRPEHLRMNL
T2 sequence (P27361 whole entry, species assumed): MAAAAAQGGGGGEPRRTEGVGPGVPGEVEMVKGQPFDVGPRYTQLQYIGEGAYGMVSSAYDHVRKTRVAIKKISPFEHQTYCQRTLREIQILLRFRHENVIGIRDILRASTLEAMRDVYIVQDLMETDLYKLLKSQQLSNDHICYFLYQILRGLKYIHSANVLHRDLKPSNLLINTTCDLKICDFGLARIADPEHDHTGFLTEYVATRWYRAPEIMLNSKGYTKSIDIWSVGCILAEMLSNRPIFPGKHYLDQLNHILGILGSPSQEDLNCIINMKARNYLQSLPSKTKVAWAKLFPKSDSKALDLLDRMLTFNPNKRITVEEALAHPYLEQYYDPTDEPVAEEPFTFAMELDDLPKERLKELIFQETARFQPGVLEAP
T3 sequence (P31749 whole entry, species assumed): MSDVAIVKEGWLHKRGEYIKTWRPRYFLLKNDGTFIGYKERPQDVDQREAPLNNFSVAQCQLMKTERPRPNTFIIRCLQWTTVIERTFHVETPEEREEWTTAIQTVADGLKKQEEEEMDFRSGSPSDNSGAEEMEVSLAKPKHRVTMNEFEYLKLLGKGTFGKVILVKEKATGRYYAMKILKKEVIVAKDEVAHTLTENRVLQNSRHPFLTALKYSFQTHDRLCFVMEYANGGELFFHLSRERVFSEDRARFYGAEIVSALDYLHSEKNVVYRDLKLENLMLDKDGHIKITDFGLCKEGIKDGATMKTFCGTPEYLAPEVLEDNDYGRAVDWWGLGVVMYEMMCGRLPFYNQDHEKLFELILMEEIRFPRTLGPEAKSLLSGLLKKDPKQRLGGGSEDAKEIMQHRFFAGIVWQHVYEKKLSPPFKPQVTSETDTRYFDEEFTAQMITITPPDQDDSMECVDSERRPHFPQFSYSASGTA
T6 sequence (Q91822 whole entry): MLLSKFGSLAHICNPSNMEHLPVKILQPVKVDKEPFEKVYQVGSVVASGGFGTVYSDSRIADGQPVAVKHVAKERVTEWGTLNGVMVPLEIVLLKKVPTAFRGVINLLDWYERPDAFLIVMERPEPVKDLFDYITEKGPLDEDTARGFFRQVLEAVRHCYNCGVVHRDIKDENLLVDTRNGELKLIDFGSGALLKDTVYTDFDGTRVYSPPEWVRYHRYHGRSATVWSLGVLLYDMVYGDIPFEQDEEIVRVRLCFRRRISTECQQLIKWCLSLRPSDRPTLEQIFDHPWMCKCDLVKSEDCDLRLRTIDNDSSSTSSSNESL

Substance: CKRPRAASFAE [PKB-sub]
- S/N ratio PKB-sub (PKB [6]): 22
- Radioactivity (cpm) PKB-sub/PKB Free (PKB [6]; free substrate, 20 minutes): 38000 cpm
- S/N ratio PKB-sub (PKB [7]): 81
- Radioactivity (cpm) PKB-sub/PKB Conj (PKB [7]; [11]): 48300 cpm
- Ratio (PKB [8]; after/before conjugation): 1.91
- Radioactivity (cpm) Before Conjugation (PKB [8]; [12]): 54300 cpm
- Radioactivity (cpm) After conjugation (PKB [8]; [13]): 103900 cpm

Substance: CGRTGRRNSI [CAPK-sub]
- Ratio (PKA; after/before conjugation): 1.10
- Radioactivity (cpm) Before Conjugation (PKA; [12]): 35680 cpm
- Radioactivity (cpm) After conjugation (PKA; [13]): 39425 cpm
- Ratio (CDK1; after/before conjugation): 3.76
- Radioactivity (cpm) Before Conjugation (CDK1; [12]): 12500 cpm
- Radioactivity (cpm) After conjugation (CDK1; [13]): 47000 cpm
- Ratio (PAK; after/before conjugation): 2.14
- Radioactivity (cpm) Before Conjugation (PAK; [12]): 31050 cpm
- Radioactivity (cpm) After conjugation (PAK; [13]): 66510 cpm
- Ratio (S6K): 6.25
- Radioactivity (cpm) Before Conjugation (S6K): 10000 cpm
- Radioactivity (cpm) After conjugation (S6K): 62500 cpm
- Ratio (PIM [9]; after/before conjugation): 2.31
- Radioactivity (cpm) Before Conjugation (PIM [9]; [12]): 18000 cpm
- Radioactivity (cpm) After conjugation (PIM [9]; [13]): 41500 cpm
- Radioactivity (cpm) Free substrate (PIM [10]): ≦300 cpm

Substance: Polylysine
- Radioactivity (cpm), polymer effect on the phosphorylation of SEK1-CT by ERK1 (ERK1 [4]): 211234 cpm
- Enhancing effect of polymeric carrier on the substrate activity (ERK1 [4]): highest enhancing effect

Substance: Polyarginine
- Radioactivity (cpm), polymer effect on the phosphorylation of SEK1-CT by ERK1 (ERK1 [4]): 91431 cpm
- Enhancing effect of polymeric carrier on the substrate activity (ERK1 [4]): certain enhancement

Results, then the substance that gave them:

- Ratio (S6K): 2.82
- Radioactivity (cpm) Before Conjugation (S6K): 14000 cpm
- Radioactivity (cpm) After conjugation (S6K): 39450 cpm
Substance: CKRRRLASLR [S6K-sub]

- S/N ratio SEK1-CT (ERK1 [1]): 16
- Radioactivity (cpm) SEK1-CT/ERK1 Free (ERK1 [1]; free substrate, 20 minutes): 2800 cpm
- Radioactivity (cpm) (ERK1 [2]): 7570 cpm
- S/N ratio SEK1-CT (ERK1 [3]): 117
- Radioactivity (cpm) SEK1-CT/ERK1 Conj (ERK1 [3]; [11]): 41000 cpm
- Ratio (ERK1 [4]; after/before conjugation): 48.28
- Radioactivity (cpm) Before Conjugation (ERK1 [4]; [12]): 2390 cpm
- Radioactivity (cpm) After conjugation (ERK1 [4]; [13]): 115400 cpm
- Radioactivity (cpm) Free substrate (ERK1 [5]): <500 cpm
Substance: CKILDQMPATPSSPMYVD [SEK1-CT]

- Enhancing effect of polymeric carrier on the substrate activity (ERK1 [4]): marginal enhancing effect
Substance: Polyhistidine
